Measurements reported in publication PMC11272584 (Nature Metabolism, 2024).
Numbering of substitutions follows the chain as printed.

What was measured:
GIPR R38L (human) = biological target: T1, GIPR R38L (human) (UniProt P48546)
T1 sequence: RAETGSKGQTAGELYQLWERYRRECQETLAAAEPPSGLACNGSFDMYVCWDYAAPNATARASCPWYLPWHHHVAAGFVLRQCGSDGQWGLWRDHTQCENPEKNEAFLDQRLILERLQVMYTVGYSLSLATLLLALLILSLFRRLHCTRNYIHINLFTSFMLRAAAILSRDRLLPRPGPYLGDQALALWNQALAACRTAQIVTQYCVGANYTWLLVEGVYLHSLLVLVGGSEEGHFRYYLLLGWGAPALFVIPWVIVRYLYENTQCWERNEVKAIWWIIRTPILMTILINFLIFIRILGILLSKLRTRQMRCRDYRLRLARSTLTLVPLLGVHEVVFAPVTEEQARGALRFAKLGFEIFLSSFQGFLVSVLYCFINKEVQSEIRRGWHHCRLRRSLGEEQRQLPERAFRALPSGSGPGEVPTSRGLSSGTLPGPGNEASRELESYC

GIPR E463Q (human) = biological target: T2, GIPR E463Q (human) (UniProt P48546)
T2 sequence: T1 sequence with L17R, E442Q

GIPR T116R (human) = biological target: T3, GIPR T116R (human) (UniProt P48546)
T3 sequence: T1 sequence with L17R, T95R

GIPR R43G (human) = biological target: T4, GIPR R43G (human) (UniProt P48546)
T4 sequence: T1 sequence with L17R, R22G

GIPR I378M (human) = biological target: T5, GIPR I378M (human) (UniProt P48546)
T5 sequence: T1 sequence with L17R, I357M

GIPR P195R (human) = biological target: T6, GIPR P195R (human) (UniProt P48546)
T6 sequence: T1 sequence with L17R, P174R

β-arrestin 2 recruitment (BRET) on stimulation with GIP(1-42): logEC50 (Arrestin) (log M (inferred)) (GIPR R38L (human)): -9 | β-arrestin 2 recruitment (BRET) on stimulation with GIP(1-42): logEC50 (Arrestin) (log M (inferred)) (GIPR E463Q (human)): -9.08 | β-arrestin 2 recruitment (BRET) on stimulation with GIP(1-42): logEC50 (Arrestin) (log M (inferred)) (GIPR T116R (human)): -8.71 | β-arrestin 2 recruitment (BRET) on stimulation with GIP(1-42): logEC50 (Arrestin) (log M (inferred)) (GIPR R43G (human)): -9.1 | β-arrestin 2 recruitment (BRET) on stimulation with GIP(1-42): logEC50 (Arrestin) (log M (inferred)) (GIPR I378M (human)): -9.13 | β-arrestin 2 recruitment (BRET) on stimulation with GIP(1-42): logEC50 (Arrestin) (log M (inferred)) (GIPR P195R (human)): -9.04
Substance: β-arrestin 2 (Rluc8-Arrestin-3-Sp1) (from UniProt P32121 1-409) (natural protein)
